B1: Erythropoietin receptor (Homo sapiens), P19235 (parent)
chain: MDHLGASLWPQVGSLCLLLAGAAWAPPPNLPDPKFESKAALLAARGPEELLCFTERLEDLVCFWEEAASAGVGPGNYSFSYQLEDEPWKLCRLHQAPTARGAVRFWCSLPTADTSSFVPLELRVTAASGAPRYHRVIHINEVVLLDAPVGLVARLADESGHVVLRWLPPPETPMTSHIRYEVDVSAGNGAGSVQRVEILEGRTECVLSNLRGRTRYTFAVRARMAEPSFGGFWSAWSEPVSLLTPSDLDPLILTLSLILVVILVLLTVLALLSHRRALKQKIWPGIPSPESEFEGLFTTHKGNFQLWLYQNDGCLWWSPCTPFTEDPPASLEVLSERCWGTMQAVEPGTDDEGPLLEPVGSEHAQDTYLVLDKWLLPRNPPSEDLPGPGGSVDIVAMDEGSEASSCSSALASKPSPEGASAASFEYTILDPSSQLLRPWTLCPELPPTPPHLKYLYLVVSDSGISTDYSSGDSQGAQGGLSDGPYSNPYENSLIPAAEPLPPSYVACS
partner: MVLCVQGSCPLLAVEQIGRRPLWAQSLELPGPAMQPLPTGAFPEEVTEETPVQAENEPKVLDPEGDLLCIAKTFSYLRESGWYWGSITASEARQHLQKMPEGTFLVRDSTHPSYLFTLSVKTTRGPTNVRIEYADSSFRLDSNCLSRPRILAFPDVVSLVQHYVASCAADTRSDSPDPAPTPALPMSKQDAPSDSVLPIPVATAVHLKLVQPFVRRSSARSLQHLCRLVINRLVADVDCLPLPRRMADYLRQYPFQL
B2: Erythropoietin receptor (Homo sapiens), P19235 (parent)
chain: B1 chain

Variants of: B1
Settings: with cish_mouse Cish

Q: Which “effect of a mutation on the interaction” value does the source give for MDHLGASLWPQVGSLCLLLAGAAWAPPPNLPDPKFESKAALLAARGPEELLCFTERLEDLVCFWEEAASAGVGPGNYSFSYQLEDEPWKLCRLHQAPTARGAVRFWCSLPTADTSSFVPLELRVTAASGAPRYHRVIHINEVVLLDAPVGLVARLADESGHVVLRWLPPPETPMTSHIRYEVDVSAGNGAGSVQRVEILEGRTECVLSNLRGRTRYTFAVRARMAEPSFGGFWSAWSEPVSLLTPSDLDPLILTLSLILVVILVLLTVLALLSHRRALKQKIWPGIPSPESEFEGLFTTHKGNFQLWLYQNDGCLWWSPCTPFTEDPPASLEVLSERCWGTMQAVEPGTDDEGPLLEPVGSEHAQDTYLVLDKWLLPRNPPSEDLPGPGGSVDIVAMDEGSEASSCSSALASKPSPEGASAASFEFTILDPSSQLLRPWTLCPELPPTPPHLKYLYLVVSDSGISTDYSSGDSQGAQGGLSDGPYSNPYENSLIPAAEPLPPSYVACS [Y426F] here?
A: decreasing interaction

Variants of: B2
Settings: with socs2_human SOCS2, O14508
Chain of socs2_human SOCS2, O14508 (O14508 whole entry): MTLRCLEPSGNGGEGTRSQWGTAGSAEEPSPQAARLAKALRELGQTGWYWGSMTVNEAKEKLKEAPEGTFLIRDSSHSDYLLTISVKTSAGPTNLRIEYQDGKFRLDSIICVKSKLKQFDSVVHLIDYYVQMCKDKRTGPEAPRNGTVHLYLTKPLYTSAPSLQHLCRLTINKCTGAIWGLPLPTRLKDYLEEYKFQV

Q: For MDHLGASLWPQVGSLCLLLAGAAWAPPPNLPDPKFESKAALLAARGPEELLCFTERLEDLVCFWEEAASAGVGPGNYSFSYQLEDEPWKLCRLHQAPTARGAVRFWCSLPTADTSSFVPLELRVTAASGAPRYHRVIHINEVVLLDAPVGLVARLADESGHVVLRWLPPPETPMTSHIRYEVDVSAGNGAGSVQRVEILEGRTECVLSNLRGRTRYTFAVRARMAEPSFGGFWSAWSEPVSLLTPSDLDPLILTLSLILVVILVLLTVLALLSHRRALKQKIWPGIPSPESEFEGLFTTHKGNFQLWLYQNDGCLWWSPCTPFTEDPPASLEVLSERCWGTMQAVEPGTDDEGPLLEPVGSEHAQDTYLVLDKWLLPRNPPSEDLPGPGGSVDIVAMDEGSEASSCSSALASKPSPEGASAASFEFTILDPSSQLLRPWTLCPELPPTPPHLKYLYLVVSDSGISTDYSSGDSQGAQGGLSDGPYSNPYENSLIPAAEPLPPSYVACS [Y426F], which “effect of a mutation on the interaction” value is on record?
A: decreasing interaction
